What follows are binders tested against TSLP, Q969D9 (assay: Kd (SPR)).

| Binder | Kd |
| --- | --- |
| unnamed (protein) chain 1: QMQLVESGGGVVQPGRSLRLSCAASGFTFSTFAMHWVRQAPGKGLEWVAVIWYDGSNKHYADSVKGRFTITRDNSKNTLNLQMNSLRAEDTAVYYCARSPRYYEYYEAFDVWGQGTMVTVSS chain 2: SYVLTQPPSVSVAPGQTARITCGGNNLGSKSVHWYQQKPGQAPVLVVYDDSDRPSWIPERFSGSNSGNTATLTISRGEAGDEADYYCQVWDSSSDHVVFGGGTKLTVL | 44.5 nM |
| unnamed (protein) chain 1: QMQLVESGGGVVQPGRSLRLSCAASGFTFSTFAMHWVRQAPGKGLEWVAVIWYDGSNKHYADSVKGRFTITRDNSKNTLNLQMNSLRAEDTAVYYCARAPRYDEDWEAFDVWGQGTMVTVSS chain 2: SYVLTQPPSVSVAPGQTARITCGGNNLGSKSVHWYQQKPGQAPVLVVYDDSDRPSWIPERFSGSNSGNTATLTISRGEAGDEADYYCQVWDSSSDHVVFGGGTKLTVL | 894 nM |
| unnamed (protein) chain 1: QMQLVESGGGVVQPGRSLRLSCAASGFTFSTFAMHWVRQAPGKGLEWVAVIWYDGSNKHYADSVKGRFTITRDNSKNTLNLQMNSLRAEDTAVYYCARAPRYYDYYEAFDVWGQGTMVTVSS chain 2: SYVLTQPPSVSVAPGQTARITCGGNNLGSKSVHWYQQKPGQAPVLVVYDDSDRPSWIPERFSGSNSGNTATLTISRGEAGDEADYYCQVWDSSSDHVVFGGGTKLTVL | 56.8 nM |
| unnamed (protein) chain 1: QMQLVESGGGVVQPGRSLRLSCAASGFTFSTFAMHWVRQAPGKGLEWVAVIWYDGSNKHYADSVKGRFTITRDNSKNTLNLQMNSLRAEDTAVYYCARAPRYYDYLEAFDVWGQGTMVTVSS chain 2: SYVLTQPPSVSVAPGQTARITCGGNNLGSKSVHWYQQKPGQAPVLVVYDDSDRPSWIPERFSGSNSGNTATLTISRGEAGDEADYYCQVWDSSSDHVVFGGGTKLTVL | 62.6 nM |
| unnamed (protein) chain 1: QMQLVESGGGVVQPGRSLRLSCAASGFTFSTYAMHWVRQAPGKGLEWVAVIWYDGSNKHYADSVKGRFTITRDNSKNTLNLQMNSLRAEDTAVYYCARAPRYYWYYEAFDVWGQGTMVTVSS chain 2: SYVLTQPPSVSVAPGQTARITCGGNNLGSKSVHWYQQKPGQAPVLVVYDDSDRPSWIPERFSGSNSGNTATLTISRGEAGDEADYYCQVWDSSSDHVVFGGGTKLTVL | 87.1 nM |
| unnamed (protein) chain 1: QMQLVESGGGVVQPGRSLRLSCAASGFTFSTYAMHWVRQAPGKGLEWVAVIWYDGSNKHYADSVKGRFTITRDNSKNTLNLQMNSLRAEDTAVYYCARAPRYDWYWEAFDVWGQGTMVTVSS chain 2: SYVLTQPPSVSVAPGQTARITCGGNNLGSKSVHWYQQKPGQAPVLVVYDDSDRPSWIPERFSGSNSGNTATLTISRGEAGDEADYYCQVWDSSSDHVVFGGGTKLTVL | 759 nM |
| unnamed (protein) chain 1: QMQLVESGGGVVQPGRSLRLSCAASGFTFSTYAMHWVRQAPGKGLEWVAVIWYDGSNKHYADSVKGRFTITRDNSKNTLNLQMNSLRAEDTAVYYCARAPRYDERYEAFDVWGQGTMVTVSS chain 2: SYVLTQPPSVSVAPGQTARITCGGNNLGSKSVHWYQQKPGQAPVLVVYDDSDRPSWIPERFSGSNSGNTATLTISRGEAGDEADYYCQVWDSSSDHVVFGGGTKLTVL | 686 nM |

The remaining binders from weak to strong by Kd, led by results:

| Kd | Binder |
| --- | --- |
| 836 nM | unnamed (protein) chain 1: QMQLVESGGGVVQPGRSLRLSCAASGFTFSTYAMHWVRQAPGKGLEWVAVIWYDGSNKHYADSVKGRFTITRDNSKNTLNLQMNSLRAEDTAVYYCARSPRYDEYWEAFDVWGQGTMVTVSS chain 2: SYVLTQPPSVSVAPGQTARITCGGNNLGSKSVHWYQQKPGQAPVLVVYDDSDRPSWIPERFSGSNSGNTATLTISRGEAGDEADYYCQVWDSSSDHVVFGGGTKLTVL |
| 366 nM | unnamed (protein) chain 1: QMQLVESGGGVVQPGRSLRLSCAASGFTFSTFAMHWVRQAPGKGLEWVAVIWYDGSNKHYADSVKGRFTITRDNSKNTLNLQMNSLRAEDTAVYYCARAPRYDERYEAFDVWGQGTMVTVSS chain 2: SYVLTQPPSVSVAPGQTARITCGGNNLGSKSVHWYQQKPGQAPVLVVYDDSDRPSWIPERFSGSNSGNTATLTISRGEAGDEADYYCQVWDSSSDHVVFGGGTKLTVL |
| 96.6 nM | unnamed (protein) chain 1: QMQLVESGGGVVQPGRSLRLSCAASGFTFSTFAMHWVRQAPGKGLEWVAVIWYDGSNKHYADSVKGRFTITRDNSKNTLNLQMNSLRAEDTAVYYCARAPRYYWYYEAFDVWGQGTMVTVSS chain 2: SYVLTQPPSVSVAPGQTARITCGGNNLGSKSVHWYQQKPGQAPVLVVYDDSDRPSWIPERFSGSNSGNTATLTISRGEAGDEADYYCQVWDSSSDHVVFGGGTKLTVL |

Source: the FLAb antibody collection (doi:10.1101/2023.12.08.570889)
